According to article PMC5771957:

Biological target: T1, CCDC103 (wildtype), N-terminal His10 tagged (H. sapiens), Q8IW40
T1 chain: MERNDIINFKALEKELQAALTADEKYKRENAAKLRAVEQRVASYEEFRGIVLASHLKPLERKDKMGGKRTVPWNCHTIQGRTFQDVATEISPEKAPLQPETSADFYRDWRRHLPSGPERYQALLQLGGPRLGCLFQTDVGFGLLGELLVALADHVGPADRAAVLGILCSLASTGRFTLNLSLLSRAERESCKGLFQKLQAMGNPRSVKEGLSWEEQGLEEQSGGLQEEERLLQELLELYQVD
Experiment: SEC
Settings: remark: other sources report otherwise

B1: CCDC103 (wildtype), N-terminal His10 tagged, Q8IW40 1-242 (natural protein)
chain: MERNDIINFKALEKELQAALTADEKYKRENAAKLRAVEQRVASYEEFRGIVLASHLKPLERKDKMGGKRTVPWNCHTIQGRTFQDVATEISPEKAPLQPETSADFYRDWRRHLPSGPERYQALLQLGGPRLGCLFQTDVGFGLLGELLVALADHVGPADRAAVLGILCSLASTGRFTLNLSLLSRAERESCKGLFQKLQAMGNPRSVKEGLSWEEQGLEEQSGGLQEEERLLQELLELYQVD
- stoichiometry N: 2
